Measurements as given in patent publication US20160060340A1 (Kyowa Kirin, published 2016).
Each block holds one binder with its values, some of them ahead of it.

Columns and labels:
FOLR1-mycHis [1] = molecular target: T1, FOLR1-mycHis (human, UniProt P15328 25-233); assay: SPR (Biacore T100), antibody captured with Human Antibody Capture Kit, FOLR1-mycHis as analyte, 1:1 binding model
T1 construct: Secreted from CHO/DG44 cells, purified on Ni-NTA; Residues 1-233 include the native signal peptide; also called non-reducing FOLR1-mycHis; recombinant protein having myc and His tag at the C-terminus of FOLR1 (1-233 amino acids); not shown: myc and His tag at the C-terminus
T1 sequence (P15328 25-233): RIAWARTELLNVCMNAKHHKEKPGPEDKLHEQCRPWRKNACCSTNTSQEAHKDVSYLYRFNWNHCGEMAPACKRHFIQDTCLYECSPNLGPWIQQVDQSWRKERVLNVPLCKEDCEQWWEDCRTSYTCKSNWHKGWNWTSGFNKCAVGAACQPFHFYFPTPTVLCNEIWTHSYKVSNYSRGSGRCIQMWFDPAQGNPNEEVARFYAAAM
Experimental: The affinity was analyzed from association constant (Ka) and dissociation constant (Kd) by Single-cycle kinetics. Kinetic constants (ka, kd, KD) were calculated by 1:1 binding model using a Biacore T-100 Evaluation software (GE Healthcare).
(§1) The affinities of ChRA15-7Acc antibody and MORAb-003 antibody for FOLR1 were measured by a surface plasmon resonance method. The measurement was carried out in the same manner as in Example 16, except that a Human Antibody Capture Kit (GE Healthcare) was immobilized onto the CM5 chip by amine coupling and FOLR1-mycHis prepared by five-step dilution (12.3, 37, 111, 333, 1000 ng/mL) was applied as an analyte.

FOLR1-mycHis [2] = molecular target: T1, FOLR1-mycHis; assay: SPR (Biacore), antibody captured by Human Antibody Capture Kit on a CM5 chip, FOLR1-mycHis as analyte (12.3-1000 ng/mL, as in Example 29); affinity relative to ChRA15-7Acc = 100
Experimental: as §1
(§2) Affinities of HV7LV3-CDRH3-Cys101 modified antibodies for FOLR1 were measured by the surface plasmon resonance method in the same manner as in Example 29.

FOLR1-mycHis [3] = molecular target: T1, FOLR1-mycHis; assay: SPR as in Example 29, antibody captured, FOLR1-mycHis as analyte
Experimental: as §1, §2

FOLR1-mycHis [4] = molecular target: T1, FOLR1-mycHis; assay: surface plasmon resonance as in Example 29
Experimental: as §1, §2

affinity as percent of the affinity of ChRA15-7Acc (FOLR1-mycHis [3]): ~70%
B5: modified humanized RA15-7 antibody HV10LV3 (antibody, human IgG1, V domains shown)
VH: EVQLVESGGGLVQPGGSMRLSCAASGFTFTDFYMNWIRQPAGKAPEWLGFIRNKANGYTTEFNPSVKGRFTISRDNSKNSLYLQMNSLKTEDTATYYCARCLYGYAYYYVMDAWGQGTLVTVSS
VL: DIQMTQSPSSLSASLGDRVTITCRTSEDIFRNLAWYQQKPGKAPKLLIYDTNRLADGVPSRFSGSGSGTDYTLTISSLQPEDFATYFCQQYDNYPLTFGQGTKLEIK
notes: Human IgG1 kappa constant regions of pKANTEX93; transiently made in FUT8 double-knockout CHO-K1 cells

binding result (FOLR1-mycHis [2]): no binding
B6: C101P (antibody, V domains shown)
VH: EVQLVESGGGLVQPGGSLRLSCAASGFTFTDFYMNWVRQPPGKAPEWLGFIRNKANGYTTEFNPSVKGRFTISRDNSKNSLYLQMNSLKTEDTATYYCARPLYGYAYYYVMDAWGQGTLVTVSS
VL: DIQMTQSPSSLSASLGDRVTITCRTSEDIFRNLAWYQQKPGKAPKLLIYDTNRLADGVPSRFSGSGSGTDYTLTISSLQPEDFATYFCQQYDNYPLTFGQGTKLEIK
notes: also called HV7LV3-CDRH3-Cys101 modified antibody C101P; antibody in which Cys101 was modified with Pro

affinity as percent of the affinity of ChRA15-7Acc (FOLR1-mycHis [3]): ~70%
B7: modified humanized RA15-7 antibody HV10LV2 (antibody, human IgG1, V domains shown)
VH: EVQLVESGGGLVQPGGSMRLSCAASGFTFTDFYMNWIRQPAGKAPEWLGFIRNKANGYTTEFNPSVKGRFTISRDNSKNSLYLQMNSLKTEDTATYYCARCLYGYAYYYVMDAWGQGTLVTVSS
VL: DIQMTQSPSSLSASVGDRVTITCRTSEDIFRNLAWYQQKPGKAPQLLIYDTNRLADGVPSRFSGSGSGTDYTLTISSLQPEDFATYYCQQYDNYPLTFGQGTKLEIK
notes: as for B5

More lines, now with the values behind:

B1: MORAb-003 antibody (antibody, V domains shown)
VH: EVQLVESGGGVVQPGRSLRLSCSASGFTFSGYGLSWVRQAPGKGLEWVAMISSGGSYTYYADSVKGRFAISRDNAKNTLFLQMDSLRPEDTGVYFCARHGDDPAWFAYWGQGTPVTVSS
VL: DIQLTQSPSSLSASVGDRVTITCSVSSSISSNNLHWYQQKPGKAPKPWIYGTSNLASGVPSRFSGSGSGTDYTFTISSLQPEDIATYYCQQWSSYPYMYTFGQGTKVEIKR
Kd (FOLR1-mycHis [1]): 57 nM
koff (FOLR1-mycHis [1]): 0.0259 s⁻¹

B2: C101A (antibody, V domains shown)
VH: EVQLVESGGGLVQPGGSLRLSCAASGFTFTDFYMNWVRQPPGKAPEWLGFIRNKANGYTTEFNPSVKGRFTISRDNSKNSLYLQMNSLKTEDTATYYCARALYGYAYYYVMDAWGQGTLVTVSS
VL: DIQMTQSPSSLSASLGDRVTITCRTSEDIFRNLAWYQQKPGKAPKLLIYDTNRLADGVPSRFSGSGSGTDYTLTISSLQPEDFATYFCQQYDNYPLTFGQGTKLEIK
notes: also called HV7LV3-CDRH3-Cys101 modified antibody C101A; antibody in which Cys101 was modified with Ala
binding result (FOLR1-mycHis [2]): binds

B3: HV7LV3-CDRH3-Cys101 modified antibody C101I (antibody, human IgG1, V domains shown)
VH: EVQLVESGGGLVQPGGSLRLSCAASGFTFTDFYMNWVRQPPGKAPEWLGFIRNKANGYTTEFNPSVKGRFTISRDNSKNSLYLQMNSLKTEDTATYYCARILYGYAYYYVMDAWGQGTLVTVSS
VL: DIQMTQSPSSLSASLGDRVTITCRTSEDIFRNLAWYQQKPGKAPKLLIYDTNRLADGVPSRFSGSGSGTDYTLTISSLQPEDFATYFCQQYDNYPLTFGQGTKLEIK
notes: Human IgG1 kappa constant regions of pKANTEX93; transiently made in FUT8 double-knockout CHO-K1 cells; also called antibody in which Cys101 was modified with Ile
affinity as percent of the affinity of ChRA15-7Acc antibody (FOLR1-mycHis [3]): 73%
affinity as percent of the affinity of ChRA15-7Acc antibody (FOLR1-mycHis [4]): ≥ 50 % of the affinity of ChRA15-7Acc antibody

B4: HV7LV3-CDRH3-Cys101 modified antibody C101Q (antibody, human IgG1, V domains shown)
VH: EVQLVESGGGLVQPGGSLRLSCAASGFTFTDFYMNWVRQPPGKAPEWLGFIRNKANGYTTEFNPSVKGRFTISRDNSKNSLYLQMNSLKTEDTATYYCARQLYGYAYYYVMDAWGQGTLVTVSS
VL: DIQMTQSPSSLSASLGDRVTITCRTSEDIFRNLAWYQQKPGKAPKLLIYDTNRLADGVPSRFSGSGSGTDYTLTISSLQPEDFATYFCQQYDNYPLTFGQGTKLEIK
notes: Human IgG1 kappa constant regions of pKANTEX93; transiently made in FUT8 double-knockout CHO-K1 cells; also called antibody in which Cys101 was modified with Gln
affinity as percent of the affinity of ChRA15-7Acc antibody (FOLR1-mycHis [3]): 64%
affinity as percent of the affinity of ChRA15-7Acc antibody (FOLR1-mycHis [4]): ≥ 50 % of the affinity of ChRA15-7Acc antibody
